T1: FcγRIIb extracellular domain with C-terminal His tag (human, UniProt P31994 43-217)
T1 construct: extracellular domain; Soluble receptor expressed in FreeStyle293 cells; analyte in Biacore; also called FcgRIIb; 2b; not shown: His tag at the C terminus
T1 sequence (looked up): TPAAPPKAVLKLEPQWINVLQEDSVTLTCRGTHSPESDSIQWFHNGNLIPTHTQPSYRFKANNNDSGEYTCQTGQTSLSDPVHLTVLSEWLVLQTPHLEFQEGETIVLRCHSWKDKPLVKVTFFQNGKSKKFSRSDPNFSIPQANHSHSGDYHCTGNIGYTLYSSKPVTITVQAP

T2: FcγRIIa R (FcγRIIa, allotype R, Arg at position 131), extracellular domain with C-terminal His tag (human, UniProt P12318 34-217)
T2 construct: extracellular domain; soluble receptor used as Biacore analyte; also called 2aR; FcgRIIa R
T2 sequence (looked up): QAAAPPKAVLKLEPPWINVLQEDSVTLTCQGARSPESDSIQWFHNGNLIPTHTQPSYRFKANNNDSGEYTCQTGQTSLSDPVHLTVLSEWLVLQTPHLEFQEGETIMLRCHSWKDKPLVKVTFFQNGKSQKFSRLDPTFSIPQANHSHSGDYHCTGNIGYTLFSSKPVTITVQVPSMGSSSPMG

T3: FcγRIIb, extracellular domain with C-terminal His tag (human, UniProt P31994 43-217)
T3 construct: extracellular domain; soluble receptor used as Biacore analyte; also called 2b; FcgRIIb
T3 sequence (looked up): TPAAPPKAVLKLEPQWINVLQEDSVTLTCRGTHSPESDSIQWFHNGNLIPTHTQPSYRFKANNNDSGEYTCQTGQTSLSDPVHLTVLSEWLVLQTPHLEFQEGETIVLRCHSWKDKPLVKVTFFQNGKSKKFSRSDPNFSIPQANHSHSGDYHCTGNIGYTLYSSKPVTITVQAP


Columns and labels:
[1] = target: T4, FcγRIa extracellular domain with C-terminal His tag (human, UniProt P12314 16-292); test: SPR (Biacore); He/Con_1a divided by He/Con_2b (FcγRIIb)
T4 construct: extracellular domain; Soluble receptor expressed in FreeStyle293 cells; analyte in Biacore; also called FcgRI; FcgRIa; not shown: His tag at the C terminus
T4 sequence (P12314 16-292): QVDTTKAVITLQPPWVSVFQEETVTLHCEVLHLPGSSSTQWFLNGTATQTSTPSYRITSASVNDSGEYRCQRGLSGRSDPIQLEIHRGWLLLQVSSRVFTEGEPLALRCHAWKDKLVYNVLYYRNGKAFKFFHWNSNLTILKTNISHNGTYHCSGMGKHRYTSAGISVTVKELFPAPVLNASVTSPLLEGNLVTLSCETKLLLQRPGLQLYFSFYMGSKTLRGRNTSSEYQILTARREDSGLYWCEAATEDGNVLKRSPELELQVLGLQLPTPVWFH
Procedure: (§1) The heterodimerized antibodies He Abs in which one of the H chains was introduced with an alteration were assayed for their binding activities to each activating FcγR and inhibitory FcγR according to the method described in Example 4. […] The activating FcγRs in FIGS. 26, 27, 28, and 29 are FcγRIa, FcγRIIa (R), FcγRIIa (H), and FcγRIIIa, respectively.
(§2) Analysis of interaction between objective antibody and the FcγR was carried out using Biacore T100 (GE Healthcare). HBS-EP+ (GE Healthcare) was used as the running buffer, and the measurement temperature was set to 25° C. Chips produced by immobilizing the antigen peptide by the amine coupling method to a Series S Sencor Chip CM5 (GE Healthcare), or alternatively, chips produced by allowing preliminarily biotinylated antigen peptides to interact with and immobilize onto a Series S Sensor Chip SA (certified) (GE Healthcare) were used. Antibodies of interest were captured onto an antigen peptide-immobilized chip, and allowed to interact to each FcγR diluted with running buffer. To regenerate and repeatedly use the chip, the antibodies captured on the chip were washed off by reacting 10 mM glycine-HCl, pH 1.5.

[2] = target: T4, FcγRIa extracellular domain with …; test: SPR (Biacore), antibody captured on antigen peptide chip, FcγR as analyte; binding relative to GpH7-A5/GpH7-B3/GpL16-k0 = 100
Procedure: as §1, §2

[3] = target: T1, FcγRIIb extracellular domain with …; test: as above
Procedure: as §1, §2

[4] = target: T2, FcγRIIa R (FcγRIIa, allotype R, Arg at …); test: Biacore SPR; He/Con_2aR divided by He/Con_2b (FcγRIIb)
[5] = target: T2, FcγRIIa R (FcγRIIa, allotype R, Arg at …); test: Biacore SPR; binding relative to GpH7-A5/GpH7-B3/GpL16-k0 (=100)
[6] = target: T3, FcγRIIb, extracellular domain with …; test: as above

Binder	He_1a/2b (Ia/IIb) [1]	He/Con_1a (Ia binding) [2]	He/Con_2b (IIb binding) [3]	IIaR/IIb (He_2aR/2b) [4]	He/Con_2aR (IIaR binding) [5]	He/Con_2b (IIb binding) [6]
GpH7-A5/GpH7-B3 variant P329_01G/GpL16-k0 (antibody, human IgG1, kappa, He Ab: heterodimerized anti-glypican-3 IgG1, substitution in one H chain only; also called He Ab P329G) heavy 1: not shown heavy 2: not shown light: DIVMTQSPLSLPVTPGEPASISCQASESLVHSNRNTYLHWYLQKPGQSPQLLIYKVSNRFSGVPDRFSGSGSGTDFTLKISRVEAEDVGVYYCSQNTHVPPTFGQGTKVEIERTVAAPSVFIFPPSDEQLKSGTASVVCLLNNFYPREAKVQWKVDNALQSGNSQESVTEQDSKDSTYSLSSTLTLSKADYEKHKVYACEVTHQGLSSPVTKSFNRGEC	2.42	101 % of control (control = 100)	41.7 % of control (control = 100)			
GpH7-A5/GpH7-B3 variant A330_10E/GpL16-k0 (antibody, human IgG1, kappa, He Ab: heterodimerized anti-glypican-3 IgG1, substitution in one H chain only; also called He Ab A330E) heavy 1: not shown heavy 2: not shown light: DIVMTQSPLSLPVTPGEPASISCQASESLVHSNRNTYLHWYLQKPGQSPQLLIYKVSNRFSGVPDRFSGSGSGTDFTLKISRVEAEDVGVYYCSQNTHVPPTFGQGTKVEIERTVAAPSVFIFPPSDEQLKSGTASVVCLLNNFYPREAKVQWKVDNALQSGNSQESVTEQDSKDSTYSLSSTLTLSKADYEKHKVYACEVTHQGLSSPVTKSFNRGEC	1.53	107 % of control (control = 100)	70.1 % of control (control = 100)			
GpH7-A5/GpH7-B3 variant A330_14T/GpL16-k0 (antibody, human IgG1, kappa, He Ab: heterodimerized anti-glypican-3 IgG1, substitution in one H chain only; also called He Ab A330T) heavy 1: not shown heavy 2: not shown light: DIVMTQSPLSLPVTPGEPASISCQASESLVHSNRNTYLHWYLQKPGQSPQLLIYKVSNRFSGVPDRFSGSGSGTDFTLKISRVEAEDVGVYYCSQNTHVPPTFGQGTKVEIERTVAAPSVFIFPPSDEQLKSGTASVVCLLNNFYPREAKVQWKVDNALQSGNSQESVTEQDSKDSTYSLSSTLTLSKADYEKHKVYACEVTHQGLSSPVTKSFNRGEC	1.35	105 % of control (control = 100)	77.9 % of control (control = 100)			
heterodimerized antibody GpH7-A5/GpH7-B3 variant V266_08L/GpL16-k0 (antibody, human IgG1, kappa, He Ab: anti-glypican-3 IgG1, alteration in one H chain only; also called He Ab) heavy 1: not shown heavy 2: not shown light: DIVMTQSPLSLPVTPGEPASISCQASESLVHSNRNTYLHWYLQKPGQSPQLLIYKVSNRFSGVPDRFSGSGSGTDFTLKISRVEAEDVGVYYCSQNTHVPPTFGQGTKVEIERTVAAPSVFIFPPSDEQLKSGTASVVCLLNNFYPREAKVQWKVDNALQSGNSQESVTEQDSKDSTYSLSSTLTLSKADYEKHKVYACEVTHQGLSSPVTKSFNRGEC				0.6	142 % of control	236 % of control
GpH7-A5/GpH7-B3 variant A330_06M/GpL16-k0 (antibody, human IgG1, kappa, He Ab: heterodimerized anti-glypican-3 IgG1, substitution in one H chain only; also called He Ab A330M) heavy 1: not shown heavy 2: not shown light: DIVMTQSPLSLPVTPGEPASISCQASESLVHSNRNTYLHWYLQKPGQSPQLLIYKVSNRFSGVPDRFSGSGSGTDFTLKISRVEAEDVGVYYCSQNTHVPPTFGQGTKVEIERTVAAPSVFIFPPSDEQLKSGTASVVCLLNNFYPREAKVQWKVDNALQSGNSQESVTEQDSKDSTYSLSSTLTLSKADYEKHKVYACEVTHQGLSSPVTKSFNRGEC	1.3	105 % of control (control = 100)	80.5 % of control (control = 100)			
GpH7-A5/GpH7-B3 variant A327_20W/GpL16-k0 (antibody, human IgG1, kappa, He Ab: heterodimerized anti-glypican-3 IgG1, substitution in one H chain only; also called He Ab A327W) heavy 1: not shown heavy 2: not shown light: DIVMTQSPLSLPVTPGEPASISCQASESLVHSNRNTYLHWYLQKPGQSPQLLIYKVSNRFSGVPDRFSGSGSGTDFTLKISRVEAEDVGVYYCSQNTHVPPTFGQGTKVEIERTVAAPSVFIFPPSDEQLKSGTASVVCLLNNFYPREAKVQWKVDNALQSGNSQESVTEQDSKDSTYSLSSTLTLSKADYEKHKVYACEVTHQGLSSPVTKSFNRGEC	1.24	97.7 % of control (control = 100)	78.8 % of control (control = 100)			
GpH7-A5/GpH7-B3 variant A330_08L/GpL16-k0 (antibody, human IgG1, kappa, He Ab: substitution in one H chain only; also called He Ab A330L) heavy 1: not shown heavy 2: not shown light: DIVMTQSPLSLPVTPGEPASISCQASESLVHSNRNTYLHWYLQKPGQSPQLLIYKVSNRFSGVPDRFSGSGSGTDFTLKISRVEAEDVGVYYCSQNTHVPPTFGQGTKVEIERTVAAPSVFIFPPSDEQLKSGTASVVCLLNNFYPREAKVQWKVDNALQSGNSQESVTEQDSKDSTYSLSSTLTLSKADYEKHKVYACEVTHQGLSSPVTKSFNRGEC	1.52	107 % of control (control = 100)	70.5 % of control (control = 100)			
GpH7-A5/GpH7-B3 variant A330_13S/GpL16-k0 (antibody, human IgG1, kappa, He Ab: heterodimerized anti-glypican-3 IgG1, substitution in one H chain only; also called He Ab A330S) heavy 1: not shown heavy 2: not shown light: DIVMTQSPLSLPVTPGEPASISCQASESLVHSNRNTYLHWYLQKPGQSPQLLIYKVSNRFSGVPDRFSGSGSGTDFTLKISRVEAEDVGVYYCSQNTHVPPTFGQGTKVEIERTVAAPSVFIFPPSDEQLKSGTASVVCLLNNFYPREAKVQWKVDNALQSGNSQESVTEQDSKDSTYSLSSTLTLSKADYEKHKVYACEVTHQGLSSPVTKSFNRGEC	2.22	91.5 % of control (control = 100)	41.3 % of control (control = 100)			
heterodimerized antibody GpH7-A5/GpH7-B3 variant V266_07I/GpL16-k0 (antibody, human IgG1, kappa, He Ab: anti-glypican-3 IgG1, alteration in one H chain only; also called He Ab) heavy 1: not shown heavy 2: not shown light: DIVMTQSPLSLPVTPGEPASISCQASESLVHSNRNTYLHWYLQKPGQSPQLLIYKVSNRFSGVPDRFSGSGSGTDFTLKISRVEAEDVGVYYCSQNTHVPPTFGQGTKVEIERTVAAPSVFIFPPSDEQLKSGTASVVCLLNNFYPREAKVQWKVDNALQSGNSQESVTEQDSKDSTYSLSSTLTLSKADYEKHKVYACEVTHQGLSSPVTKSFNRGEC				0.79	120 % of control	152 % of control
GpH7-A5/GpH7-B3 variant A330_07I/GpL16-k0 (antibody, human IgG1, kappa, He Ab: heterodimerized anti-glypican-3 IgG1, substitution in one H chain only; also called He Ab A330I) heavy 1: not shown heavy 2: not shown light: DIVMTQSPLSLPVTPGEPASISCQASESLVHSNRNTYLHWYLQKPGQSPQLLIYKVSNRFSGVPDRFSGSGSGTDFTLKISRVEAEDVGVYYCSQNTHVPPTFGQGTKVEIERTVAAPSVFIFPPSDEQLKSGTASVVCLLNNFYPREAKVQWKVDNALQSGNSQESVTEQDSKDSTYSLSSTLTLSKADYEKHKVYACEVTHQGLSSPVTKSFNRGEC	1.57	105 % of control (control = 100)	67.1 % of control (control = 100)			
GpH7-A5/GpH7-B3 variant A330_09D/GpL16-k0 (antibody, human IgG1, kappa, He Ab: heterodimerized anti-glypican-3 IgG1, substitution in one H chain only; also called He Ab A330D) heavy 1: not shown heavy 2: not shown light: DIVMTQSPLSLPVTPGEPASISCQASESLVHSNRNTYLHWYLQKPGQSPQLLIYKVSNRFSGVPDRFSGSGSGTDFTLKISRVEAEDVGVYYCSQNTHVPPTFGQGTKVEIERTVAAPSVFIFPPSDEQLKSGTASVVCLLNNFYPREAKVQWKVDNALQSGNSQESVTEQDSKDSTYSLSSTLTLSKADYEKHKVYACEVTHQGLSSPVTKSFNRGEC	1.95	109 % of control (control = 100)	55.6 % of control (control = 100)			
GpH7-A5/GpH7-B3 variant A330_03V/GpL16-k0 (antibody, human IgG1, kappa, He Ab: heterodimerized anti-glypican-3 IgG1, substitution in one H chain only; also called He Ab A330V) heavy 1: not shown heavy 2: not shown light: DIVMTQSPLSLPVTPGEPASISCQASESLVHSNRNTYLHWYLQKPGQSPQLLIYKVSNRFSGVPDRFSGSGSGTDFTLKISRVEAEDVGVYYCSQNTHVPPTFGQGTKVEIERTVAAPSVFIFPPSDEQLKSGTASVVCLLNNFYPREAKVQWKVDNALQSGNSQESVTEQDSKDSTYSLSSTLTLSKADYEKHKVYACEVTHQGLSSPVTKSFNRGEC	2.01	106 % of control (control = 100)	52.4 % of control (control = 100)			
heterodimerized antibody GpH7-A5/GpH7-B3 variant Y300_10E/GpL16-k0 (antibody, human IgG1, kappa, He Ab: anti-glypican-3 IgG1, alteration in one H chain only; also called He Ab) heavy 1: not shown heavy 2: not shown light: DIVMTQSPLSLPVTPGEPASISCQASESLVHSNRNTYLHWYLQKPGQSPQLLIYKVSNRFSGVPDRFSGSGSGTDFTLKISRVEAEDVGVYYCSQNTHVPPTFGQGTKVEIERTVAAPSVFIFPPSDEQLKSGTASVVCLLNNFYPREAKVQWKVDNALQSGNSQESVTEQDSKDSTYSLSSTLTLSKADYEKHKVYACEVTHQGLSSPVTKSFNRGEC				0.8	107 % of control	134 % of control

From patent US20180155451A1 (published 2018)
